Literature values in PMC11346406.

Target: TDP-43 PLD (Homo sapiens) (UniProt Q13148)
Test: NMR

Chain of TDP-43 RRM1-RRM2 (Q13148 102-269): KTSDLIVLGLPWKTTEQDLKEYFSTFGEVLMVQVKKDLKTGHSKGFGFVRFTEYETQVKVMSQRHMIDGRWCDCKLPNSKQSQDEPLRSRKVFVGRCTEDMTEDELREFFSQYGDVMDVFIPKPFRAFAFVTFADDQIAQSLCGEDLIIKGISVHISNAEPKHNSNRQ
Chain of TDP-43 PLD (Homo sapiens) (Q13148 274-414): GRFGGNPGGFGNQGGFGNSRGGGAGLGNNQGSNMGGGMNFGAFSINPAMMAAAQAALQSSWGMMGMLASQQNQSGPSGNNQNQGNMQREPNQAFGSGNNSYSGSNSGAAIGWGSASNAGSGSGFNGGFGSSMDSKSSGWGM

TDP-43 RRM1-RRM2 (from UniProt Q13148)
Kd: 5 µM
